Measurements reported in the RNAGym collection of RNA variant scans (doi:10.1021/acssynbio.7b00057).

B1: Pistol ribozyme (parent)
chain: GGGUCGUUGUUCCAUAAUCGCGUGGAUAUGGCACGCAAGUUUCUACCGGGCACCGUAAAUGUCCGACUGGAGCCGUUCGGGCGGCUAUAAACAGACCUCAGGCCCGAAGCGUGGCGGCACCUGCCGCCGGUGGUAAAAAAGAUCGGAAGAGCACACGUCU

Variants of: B1
Assay: aptazyme ON/OFF ratio, guanine; higher = stronger switching; co-transcriptional cleavage with and without guanine

In order of rising “aptazyme ON/OFF ratio” value:
1. GGGUCGGAAACUCAUAAUCGCGUGGAUAUGGCACGCAAGUUUCUACCGGGCACCGUAAAUGUCCGACUGGAGCCGUUCGGGCGGCUAUAAACAGACCUCAGGCCCGAAGCGUGGCGGCACCUGCCGCCGGUGGUAAAAAAGAUCGGAAGAGCACACGUCU [U7G U8A G9A U10A U11C C12U]  1.04
2. GGGUCGGAAACGGAUAAUCGCGUGGAUAUGGCACGCAAGUUUCUACCGGGCACCGUAAAUGUCCGACUGGAGCCGUUCGGGCGGCUAUAAACAGACCUCAGGCCCGAAGCGUGGCGGCACCUGCCGCCGGUGGUAAAAAAGAUCGGAAGAGCACACGUCU [U7G U8A G9A U10A U11C C12G C13G]  1.05
3. GGGUCGGAAAGAGAUAAUCGCGUGGAUAUGGCACGCAAGUUUCUACCGGGCACCGUAAAUGUCCGACUGGAGCCGUUCGGGCGGCUAUAAACAGACCUCAGGCCCGAAGCGUGGCGGCACCUGCCGCCGGUGGUAAAAAAGAUCGGAAGAGCACACGUCU [U7G U8A G9A U10A U11G C12A C13G]  1.06
4. GGGUCGGAAAGAUAUAAUCGCGUGGAUAUGGCACGCAAGUUUCUACCGGGCACCGUAAAUGUCCGACUGGAGCCGUUCGGGCGGCUAUAAACAGACCUCAGGCCCGAAGCGUGGCGGCACCUGCCGCCGGUGGUAAAAAAGAUCGGAAGAGCACACGUCU [U7G U8A G9A U10A U11G C12A C13U]  1.07
5. GGGUCGGAAAGAAAUAAUCGCGUGGAUAUGGCACGCAAGUUUCUACCGGGCACCGUAAAUGUCCGACUGGAGCCGUUCGGGCGGCUAUAAACAGACCUCAGGCCCGAAGCGUGGCGGCACCUGCCGCCGGUGGUAAAAAAGAUCGGAAGAGCACACGUCU [U7G U8A G9A U10A U11G C12A C13A]  1.07
6. GGGUCGGAACUAAAUAAUCGCGUGGAUAUGGCACGCAAGUUUCUACCGGGCACCGUAAAUGUCCGACUGGAGCCGUUCGGGCGGCUAUAAACAGACCUCAGGCCCGAAGCGUGGCGGCACCUGCCGCCGGUGGUAAAAAAGAUCGGAAGAGCACACGUCU [U7G U8A G9A U10C C12A C13A]  1.07
7. GGGUCGGAAACGCAUAAUCGCGUGGAUAUGGCACGCAAGUUUCUACCGGGCACCGUAAAUGUCCGACUGGAGCCGUUCGGGCGGCUAUAAACAGACCUCAGGCCCGAAGCGUGGCGGCACCUGCCGCCGGUGGUAAAAAAGAUCGGAAGAGCACACGUCU [U7G U8A G9A U10A U11C C12G]  1.07
8. GGGUCGGAAACGUAUAAUCGCGUGGAUAUGGCACGCAAGUUUCUACCGGGCACCGUAAAUGUCCGACUGGAGCCGUUCGGGCGGCUAUAAACAGACCUCAGGCCCGAAGCGUGGCGGCACCUGCCGCCGGUGGUAAAAAAGAUCGGAAGAGCACACGUCU [U7G U8A G9A U10A U11C C12G C13U]  1.1
9. GGGUCGGAAAGGAAUAAUCGCGUGGAUAUGGCACGCAAGUUUCUACCGGGCACCGUAAAUGUCCGACUGGAGCCGUUCGGGCGGCUAUAAACAGACCUCAGGCCCGAAGCGUGGCGGCACCUGCCGCCGGUGGUAAAAAAGAUCGGAAGAGCACACGUCU [U7G U8A G9A U10A U11G C12G C13A]  1.1
10. GGGUCGGAACUACAUAAUCGCGUGGAUAUGGCACGCAAGUUUCUACCGGGCACCGUAAAUGUCCGACUGGAGCCGUUCGGGCGGCUAUAAACAGACCUCAGGCCCGAAGCGUGGCGGCACCUGCCGCCGGUGGUAAAAAAGAUCGGAAGAGCACACGUCU [U7G U8A G9A U10C C12A]  1.1
11. GGGUCGGAAACGAAUAAUCGCGUGGAUAUGGCACGCAAGUUUCUACCGGGCACCGUAAAUGUCCGACUGGAGCCGUUCGGGCGGCUAUAAACAGACCUCAGGCCCGAAGCGUGGCGGCACCUGCCGCCGGUGGUAAAAAAGAUCGGAAGAGCACACGUCU [U7G U8A G9A U10A U11C C12G C13A]  1.11
12. GGGUCGGAAACACAUAAUCGCGUGGAUAUGGCACGCAAGUUUCUACCGGGCACCGUAAAUGUCCGACUGGAGCCGUUCGGGCGGCUAUAAACAGACCUCAGGCCCGAAGCGUGGCGGCACCUGCCGCCGGUGGUAAAAAAGAUCGGAAGAGCACACGUCU [U7G U8A G9A U10A U11C C12A]  1.12
13. GGGUCGGAAAGGGAUAAUCGCGUGGAUAUGGCACGCAAGUUUCUACCGGGCACCGUAAAUGUCCGACUGGAGCCGUUCGGGCGGCUAUAAACAGACCUCAGGCCCGAAGCGUGGCGGCACCUGCCGCCGGUGGUAAAAAAGAUCGGAAGAGCACACGUCU [U7G U8A G9A U10A U11G C12G C13G]  1.12
14. GGGUCGGAAACAGAUAAUCGCGUGGAUAUGGCACGCAAGUUUCUACCGGGCACCGUAAAUGUCCGACUGGAGCCGUUCGGGCGGCUAUAAACAGACCUCAGGCCCGAAGCGUGGCGGCACCUGCCGCCGGUGGUAAAAAAGAUCGGAAGAGCACACGUCU [U7G U8A G9A U10A U11C C12A C13G]  1.12
15. GGGUCGGAAACAUAUAAUCGCGUGGAUAUGGCACGCAAGUUUCUACCGGGCACCGUAAAUGUCCGACUGGAGCCGUUCGGGCGGCUAUAAACAGACCUCAGGCCCGAAGCGUGGCGGCACCUGCCGCCGGUGGUAAAAAAGAUCGGAAGAGCACACGUCU [U7G U8A G9A U10A U11C C12A C13U]  1.14
16. GGGUCGGAAACAAAUAAUCGCGUGGAUAUGGCACGCAAGUUUCUACCGGGCACCGUAAAUGUCCGACUGGAGCCGUUCGGGCGGCUAUAAACAGACCUCAGGCCCGAAGCGUGGCGGCACCUGCCGCCGGUGGUAAAAAAGAUCGGAAGAGCACACGUCU [U7G U8A G9A U10A U11C C12A C13A]  1.15
17. GGGUCGGAAAGGUAUAAUCGCGUGGAUAUGGCACGCAAGUUUCUACCGGGCACCGUAAAUGUCCGACUGGAGCCGUUCGGGCGGCUAUAAACAGACCUCAGGCCCGAAGCGUGGCGGCACCUGCCGCCGGUGGUAAAAAAGAUCGGAAGAGCACACGUCU [U7G U8A G9A U10A U11G C12G C13U]  1.17
18. GGGUCGGAAAACUAUAAUCGCGUGGAUAUGGCACGCAAGUUUCUACCGGGCACCGUAAAUGUCCGACUGGAGCCGUUCGGGCGGCUAUAAACAGACCUCAGGCCCGAAGCGUGGCGGCACCUGCCGCCGGUGGUAAAAAAGAUCGGAAGAGCACACGUCU [U7G U8A G9A U10A U11A C13U]  1.23
